Results taken from the DeepSol protein solubility set.

Assay: soluble on expression in E. coli; label from the status in PepcDB or PDB records

Sequence | soluble on expression in E. coli
MGSDKIHHHHHHMMISLYSAATGMSAQQFKLDTIANNLANVDTTGYKKVRAEFQDLLYQYVKNAGTPTAATSSLPTGLYVGHGVRTAATTRIFTLGNFEQTGNALDLAIAGDGFFQIQLQDGRIAYTRDGSFKMDSEGRIVTSNGLLLVPEITIPENAVSINVSPDGIVSAELQDGTIQELGTITLVRFVNPSGLKSIGDNLYIATPASGDPIEGVPGQDGFGAIKQGFLEKSNVDVVREMVDMITAQRAYEFNSRVIQTADEMLRTATNVKR | not soluble
GMPIDTPTDASPADGSASDTVFFGIMSGLELGTFVPGQRLVETDLVAHFGVGRNSVREALQRLAAEGIVDLQRHRGAVIRRLSLQETLDVLDVAERMTGLLARAATRGSGNQPQVQALRASVQALVAAEKAQDGETFSNARRHFYRTLLEMGDNRELRRLFPTIHMPIVHAQHRLASLRQMRLDDYRRIATAVLAGEPDAAEAAGAAHVKNVRGAILDRQPA | soluble
MADRAEMFSLSTFHSLSPPGCRPPQDISLEEFDDEDLSEITDDCGLGLSYDSDHCEKDSLSLGRSEQPHPICSFQDDFQEFEMIDDNEEEDDEEEEEEEEEEEDGDRQGKAGGGPGSQALAGDSLIPSPSLEESHKLRPTTLHLTTLGAQDSLNNNNGGFTSAPPSSWQETVLRSPAQEPLKELPAPLLPAEEERHEVQSLARPGCDCEGNQPPEQPASSGGASPSSDPGIEADLRSHSSGGHEGRRSSQELSSPGSDSEDAGGARLGRMISSISETELELSSDGGSSSGRSSHLTNSIEEASSPASEPEPEPEPLHEPPRRPAFLPVGQDDTNSEYESGSESEPDLSEDADSPWLLSNLVSRMISEGSSPIRCPGQCLSPAPRLPEEAASQANSVPQDCQDPEAGPHVELVDMDTLCGPPPPAPAAPRLGPAQPGPCLFLSNPTRDTITPLWATPGRTARPGRSCSAACSEEEEEDEEEDEEDEEDAEDSVVPPGSRTTGSTAPLDASLVYDAVKYTLVVDEHTQLELVSLRRCAGLGNDSEEDSSCEASEEEAGATLLGSDQVPEDASPDSPDLTFSKKFLNVFVNSTSRSSSTESFGLFSCVVNGEEREQTHRAVFRFIPRHPDELELDVDDPVLVEAEEDDFWFRGFNMRTGERGVFPAFYAHAVPGPAKDLLGSKRSPCWVDRFDVQFLGSVEVP | soluble
GPGSMPRGSSKSKKEVSEEPKTTGGSGGDATETSPPTPKAKKGKGGDKMLVNEPNDEKHTVEDARTVQTPSDHETSAARKKPPPKDVKDEKKSEPAHGGGRLLKNNPNDEVVPVEGMHNVATPRSGLITTESDGAKGTMLRNAPHDEAIPVSGHAITMDTPKRTIDVHPGTITNTDDDDDPKSTEEEESVPIGRTRGYCNPRPEAINLEAEVPETTAPNLGYKPQEYAMVNANASREVQELFKRILDYQPQTPELPAKLRPFIPDYVPSIGDLDPFCKIPRPDGKPDGLGIYVLDEPSVAQSNPAVVLLELRATNIHSVGGLAEAVDSFEDAANRPEVIDRWINDVKKVHYKKPLPTINYQKPMPEIDLLLQVWPQEFEEFLNSDVQFPPPQIDLDLDQYVRALCCILDIPTYTSLIDSLHVMFTLYQEFRANQHFQHE | soluble
MAHHHHHHMVQEWWVSAAQEAVISRKATSRAERIVTEADDPRSGTSHFYDSDARLCLVCNARLEGSYSAHSHSVDHKPRVALLKRTIGMILTFLEQAGSSPSLPPPPESDSPYSLPGSKRFLVSVSTHTGTPAAPAPSCFHALYAESPLFAEDGVPSRALLYHRPCTLREFDLVDVIMRRWWNTLHNPPPRRGSISFDRLLSLSSAELQMRRWRVRYLLHFLKSRGVLRSCLTLRSDQVNAAPSPNERIHRGEAFERLEMVGDFFFKSLTPDRMHTVFPADEGGLTAELQCFERALDSNHGLLAIYDYLGLDDIVGCFLANNKAKADVVEAVIGELKVLLWSTEVVWGMEYYAVPGERATHVYLRALVAHTIAELGHTVLMWQLESTLRNCRDFLLKHTVEEYLGAEKGNERRASRGGDGCDVPADLPKYSPLPPLLAWNRRRLGVSMRRGEVPLASKQSRSSIPPSPQDPLRRLAPTASCIPEAIRDHYAVGRKKWSSYACKTAIQALCASLTQTALQHDSGHTADALSLNSSSASLPLSPEPQPSPTTPAYACVPRSVLRALVTANCVVIRNSAPPLARSTSTRRVAG | not soluble
MAHHHHHHMLSTSQAFLASLRYRRPYWMLFLKGADNWKIYTVIQQPDHQRTEMLYQAWLGGLDRPYVRPKCMAHQPVWLSKKRHLLQKARLEGPETSVEKYVLEWYKKFHSFQGTDRPTAEDLHTAFDLVERPLDLSYACQLLNQCRNHYYIRLSDDSFEIFLEACLRVDRRDCAIYALEHAEELGFWHVSDNCRRYLAGEQTWYKRSPVDLLYYPLEENAERNTAVTSGTAASAVAASDKVKGDEKVEGAPRTSATTSATAASAENEGEAEVTDDEIARLQAELEALEREIGSEGADGTDKD | not soluble
MADNPASSSSQQLLALRVMRLARPKFAPVDGFSHDPVDPTGFGELLAGKVSEISKESRQDLPIGEYLIAPQMFENIYLGETFTFYVNVVNESEKTVSSVSLKCELQTSTQRVVLPCSVQDATIESSKCEGQVISHEVKEIGQHILICSVNYKTSNGENMYFRKFFKFPVSKPIDVKTKFYSAENQDVYLEAQIENTSNANMFLEKVELDPSQHYNVTSIAHEDEFGDVGKLLKPKDIRQFLFCLTPADVHNTLGYKDLTSIGKLDMSWRTSMGEKGRLQTSALQRIAPGYGDVRLSVEKTPACVDVQKPFEVSCRLYNCSERALDLQLRLEQPSNRHLVFCSPSGVSLGQLPPSQHVDFSLNVFPVTVGIQSISGIRITDTFTKRIYEHDDIAQIFVS | not soluble
MGSDKIHHHHHHMAHAHQKSDPHTVDFQVDPVVLELGQRFVDAGYELSLVGGPVRDLFLGRRSPDLDFTTDATPDQTLALIRKWADNFWEIGKAFGTIGMRKSGFQIEITTYRAEAYDPESRKPMVAFGSSLTDDLLRRDFTINAMALRLPSMELIDPFGGVRDLHASVLATPGAPETSFSDDPLRMMRAARFAAQLGVAVRGDVKHAMSQMAERISIISAERVREELVKLICGAHPRVGIDLLVDTGLAEFVLPEVSALRLEADEHHRHKDVYQHSLQVLEQAASLETDSDGAVPGPDFVLRFAALMHDVGKPATRRFEPGGAVSFRHHDMVGSKLTKKRMKALRFDNDTIKAVARLVELHMRFYGYGEAGWSDSAVRRYVTDAGPLLERLHRLTRSDVTTRNQRKADRLSFAYDDLEARIAALREQESLEAVRPDLDGGQIMALLGLKPGPVVGKAYKFLLEQRMEHGPLDPVVAEARLREWWADQPEAAEHQPAAGVELSTTEES | not soluble
MAHHHHHHSLISNHFLRDLYAIIVDDVGRFKPSAILDVGCGTGTADYFILSAFPDISVDCIDPSPYMISIARKKLSKFGSRVRAELGSSRSIPFDRRYDFVFTSISFHHWKCREDGLRNMAKYVSDHGVLAVYEYYRPNLRSFHRVAGKHALTMEDVEKLNIEGFTKKYEIRGEMMRIMFQRDEG | soluble
MGSDKIHHHHHHILDSTIYLIGTAHFSKESQEDVSNTIRAVQPDFVMLELCPSRISIISMDEARLLSEAKDLNSQKIIQTMKQNGAIQGILHVLLLSMSAHVTRELSMAPGGEFRAAHRAAVATENCRVVLGDRPIQVTLQRALASLSIWQKIRFFFHVAFSHREKITAEEVERCKQRDLLEQLLAEMADDFPQLSQIFVEERDAYMTHALHMLVHRNSVEKRAQWLRGTTGQQFQPLTVVAVV | not soluble
SEDHQHVPIDIQTSKLLDWLVDRRHCSLKWQSLVLTIREKINAAIQDMPESEEIAQLLSGSYIHYFHCLRILDLLKGTEASTKNIFGRYSSQRMKDWQEIIALYEKDNTYLVELSSLLVRNVNYEIPSLKKQIAKCQQLQQEYSRKEEECQAGAAEMREQFYHSCKQYGITGENVRGELLALVKDLPSQLAEIGAAAQQSLGEAIDVYQASVGFVCESPTEQVLPMLRFVQKRGNSTVYEWRTGTEPSVVERPHLEELPEQVAEDAIDWGDFGVEAVSEGTDSGISAEAAGIDWGIFPESDSKDPGGDGIDWGDDAVALQITVLEAGTQAPEGVARGPDALTLLEYTETRNQFLDELMELEIFLAQRAVELSEEADVLSVSQFQLAPAILQGQTKEKMVTMVSVLEDLIGKLTSLQLQHLFMILASPRYVDRVTEFLQQKLKQSQLLALKKELMVQKQQEALEEQAALEPKLDLLLEKTKELQKLIEADISKRYSGRPVNLMGTSL | soluble
MGHHHHHHSHMSLFSGTIQNLENALSRADIKQKVITNNIANIDTPNYKAKKVSFQNLLDQESSRLEAIKTDYRHVDFSDTDSNYSIVASGDTSYQQNGNNVDVDKEMTELAQNQINYQALVERMNGKFNSLKTVLTGGK | not soluble
GASKAFYSAGDKLFQPGDDAVASMQTYSVAQFLQPFTLNPAKASSDYLGKWVKVRGVIVDIRRKSGIAGSYYFIVTMRDEQNKTDKRLTFNFGSHNSADVEALSNGSVATIVGQVHQVQDSTIPTLQNPKVVK | soluble
MAHHHHHHMTSVEAENQPVEDPETFVVMEENGAPRDPQVAVSALDEAAEEGAVSGGEREPAAAGDDLSNPHVFKVAAREVDEGYMSVIRGLSAFGRADEEVCRNAVDICKDIIAMEQSLFSEVPSYVTNYASMQRAKTVVLNKAVRPHWTIPTPEGPPRTWEEQRAYVDPGVPLMLPYSAERFKKEHPERALVEGTYHNLFYGDGTQVVFTASADNKRKQIEEEKRKHPHPSYHGPYVFEPQQKKPMRVASDFVPSCAEPDRLRVDLRKKPVTKAKAEKSQKKKVTTK | not soluble
MGSDKIHHHHHHMNLGNPIAKGNTAEIYLYDNKIMKLFKDYLPNTESMNEAKKQKYAYSCGLPVPNVFEVTKIQNRQAIIMEYVKGDSIGDLLLNNLNEAEYYINICVNEQKKIHAIHVNTDEMEAMGERLERQIKSVHKLDEKQKESILNKLHSIKLDPRLCHGDFHPFNLILSEKNVSIIDWIDASSGDIRADLFRTYLLYSQSSVELAEKYLHIYCRNTGLSRDEIFQWAPIIIAARISENVTATNIEYLNDLVAQYCN | not soluble
CFTPESTALLESGVRKPLGELSIGDRVLSMTANGQAVYSEVILFMDRNLEQMQNFVQLHTDGGAVLTVTPAHLVSVWQPESQKLTFVFADRIEEKNQVLVRDVETGELRPQRVVKVGSVRSKGVVAPLTREGTIVVNSVAASCYA | soluble
MSDTEKYVARPAVGHLPLDDSWTPTSAEAIQDEPSPDEEEYKRQYTCRMVPNEGPLYQHYMLEAVAVADDEVKIPLEEVKEEPVELPAAVVHEVVALKPATRRESSISSDSGRGADCSTTSASALTSNTSMRRDRLVGTSNFGSQRSLWCELPEVRAAGLLEKLDDECKLRQEAYFEVITSEASYLRSLNVLITHFMASPQMLGSKSALSVLSDSDRKHLFSNIFAVRDCSERLLCDLETRLEENLILDDICDILSDHFDKHFEVYIKYCSNQVYQDRTLRRLKTENPGFLSAVQRLEENKQCQGLDMRSFLMLPMQRVTRYPLLLYAILDRITTTDDRYKTATDALTSSNRVVRDCNEGARRMERTEQLLDIDRRLIYKDADLKRIPLVSNSRYLVKKGVLTQLVERRSSNILQSRQKARTLHVFLFSDMIMITKKKLNGTFVCKDYAARRFVDMQPIEPDNPKIPLGATSNLVGRPHLFLCTLMRNARDKQTELLLSADSETDRERWLSAVRPPTSTNPEEKIYAEWDCPQALVVHAYQPSQADELQLNIGDSLNILRKMPDGWLYGERAGDGLGGWFPSSYVQAIINDHTRANNYRQRLRIIQAASGWHGNASPSSTRSGGMPLMDRLRRMSNPKTYFQSGTVGL | not soluble
MNLPSKFHQVTITDPIAGAGITFTIPTRYVNLKFLNVGAQGIVVMADDLVTTQRVAIKKMQQPFLLTMSARRAYREFILLTTLKHPNIIRLLNAFTPDTSLSSFQEVYLVMEFMTHNLHEVIHRLRLDHETLSFLVYQSLCAIKHLHNLGFIHRDLKPSNIVVNERCVLKVLDFGLARRRNVDMRMSDYVGTRYYRAPEVILGLNYSEKVDIWSVGCILAEMINHTVLFPGKDIRDQWTQISSVLRTPDDHFINQLEPIGAVYVRSLPQHLARAFNEIVPDSNFLPETENPKDHLTLHMARDLLFNMLKINPEERYSVEDALNHPYTMVQGR | not soluble
